± gives the uncertainty stated by the source.
assay: amyloid nucleation score (Sup35N fusion, yeast selection) (log enrichment); library NNK3; higher = more nucleation; inactive = no reads after selection
How it was run: (§1)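 Sup35N was fused to peptides of 20 random codons and expressed in psi-negative yeast, which were induced with 100 μM copper sulfate for 24 hours and then grown on medium lacking adenine and uracil for 7 days at 30°C. Plasmid inserts from input and output were sequenced on Illumina. The nucleation score is the DiMSum log enrichment of output over input reads, centred on the mode score of non-aggregating sequences. Sequences with under 100 input reads were left out, and random libraries had three technical output replicates.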

Row | Substance | amyloid nucleation score
1 | GKVYLYLCLGMMFGL | inactive
2 | KYNWLNKVSTIGTSKGSSIG | inactive
3 | FERISRSFAYIDIRHIICMF | 1.56 ± 0.11
4 | SGITIEF | inactive
5 | NSTNMDSFGIPLNRILWMLN | inactive
6 | RVWRSNSPGAEKWTLLTKTL | inactive
7 | SHISWSQYRM | 1.58 ± 0.11
8 | MMLGVLYATLWPLLKLDCGE | inactive
9 | SLLLLSGFEVSSKR | inactive
10 | FGINDCVIRV | inactive
11 | FLRRGCLFRQT | inactive
12 | MNCWYFLLGACWITIKHLFY | inactive
13 | VFNWYEVVFTFWCNMTANGM | 1.49 ± 0.069
14 | YDCVIYSVAECLYVTSSFIE | 0.253 ± 0.18
15 | SESMCVIVSRIIWCGKVSNV | inactive
16 | WMYRKTSNRICCLPRESVNP | inactive
17 | EERRDLAPTDLTWKDFRALQ | inactive
18 | RSSSPIRVHTINGDVYTDVV | inactive

assay: amyloid nucleation score (Sup35N fusion, yeast selection) (log enrichment); library NNK2; higher = more nucleation; inactive = no reads after selection
How it was run: as §1

Row | Substance | amyloid nucleation score
19 | MVIGNLGLLLEGLRVEYLNH | inactive
20 | FLIFVFLLYGPEMSDYCWTF | 0.14 ± 1
21 | SLSVAWKWGGRSDN | 6.213 ± 0.06
22 | VKMMWNCSLVDALATRGNVV | 0.505 ± 0.54
23 | VGLFGWRGKEGF | -0.033 ± 0.76
24 | LNYMLSAPYFPYESEWSSKG | -0.59 ± 1.1
25 | LNDSLTIACSTNTANSWRNL | inactive
26 | NLRHKDGTGLLRSWMSIQRR | 0.436 ± 0.62
27 | KLLFCERGKSGSNQSSLTKT | -0.523 ± 0.54
28 | VVHSFEWNLRRLSTWWRWGF | 0.217 ± 0.31
29 | HSNPYRKLIQLTMTGITGTV | 0.033 ± 0.48
30 | CFLGHGCILVGYLRDYRLLR | 0.759 ± 0.67
31 | GDTPGSLYCNLISEGAI | 0.119 ± 0.76
32 | LLYTSWLV | 0.272 ± 0.41
33 | INLISSYHFGELTCATSYWR | 4.77 ± 0.09
34 | LFDSCSDSRMFNWMGPSNGQ | inactive
35 | PTDHSTEVSLRFCCRGVSEL | -0.403 ± 0.46
36 | ASDWLNRNSNS | -0.211 ± 0.28
37 | EIFAGICSSLAFKGHGRKSG | 6.29 ± 0.065
38 | HSLVS | -0.266 ± 1
39 | MYCETLRRSILMVNMNPRNP | -0.114 ± 0.31
40 | LRYHKTILYTRFSRNHTYAT | 0.498 ± 0.74
41 | MGMLFMFVITKKSLVQDSLY | 2.64 ± 0.19

Row | Substance | amyloid nucleation score
42 | FGIHHCLVCRLNLDFISGVD | -0.877 ± 0.62
43 | LRCHDGVKLSKSVCECCMYM | 2.37 ± 0.19
44 | MSYAYKVRSCCVMFMMFRSW | -0.336 ± 0.54
45 | VCRLFLYGQWLVGRRANSYS | -0.731 ± 0.39
46 | VAFNCNIEIISPAGDGETFV | -0.489 ± 0.27
47 | EVAEQH | 0.426 ± 0.16
48 | NTHGR | 4.61 ± 0.073
49 | WDSRDLMC | 0.344 ± 0.39
50 | QMNVSTYSCNLD | 0.044 ± 1.1
51 | TTSGNTIHIYVIQLSIQKFS | 5.39 ± 0.06
52 | IYIGLCLRDYILDNMALMRQ | -0.721 ± 0.32
53 | SSWLYGVYSSYMWMLF | -1.45 ± 1
54 | DYTNSTAEGFTF | inactive
55 | YFELKLKNARVGRFIDWRAT | 1.77 ± 0.27
56 | RIDVAI | -0.457 ± 0.76
57 | FRCHYFNWNDFALAVSFSKE | -0.33 ± 0.38
58 | INPSWVSCVHFM | 0.062 ± 0.74
59 | SIVLMCVLMYPPIDVSSWLS | 4.415 ± 0.042
60 | GSQVLCGLRLPARGFWSYIM | 0.254 ± 0.3
61 | VRLHGLLHANMGKTFMLLLS | -0.486 ± 0.56
62 | IERPVRVHRYKT | inactive
63 | EVHLEVLTNCKKV | 5.05 ± 0.051
64 | GFDGLRVLLNEHNVIAK | 0.771 ± 0.47

Row | Substance | amyloid nucleation score
65 | FFLLVCVDGKTRRVD | 0.8 ± 0.15
66 | SWKFNRASPSEMMCASNAWN | 0.404 ± 0.8
67 | DYWFLCAICLWVFTGMYLVE | 0.01 ± 0.28
68 | FCMNTQH | 5.288 ± 0.042
69 | QWMVLQSDRGAEMIARA | 1.29 ± 0.2
70 | NVTGYFSSYKVVGRMESSYV | 1.73 ± 0.19
71 | LYSESIVLFAYGFNGDGGLY | -0.67 ± 0.29
72 | VYVFYVSIKVAVFTLTM | 3.92 ± 0.041
73 | SVYANILFNKACMRFNVVNG | 0.23 ± 0.21
74 | KRIIFALL | -0.337 ± 0.48
75 | AWLWKMFNGTCNRWYINRPL | -0.81 ± 0.76
76 | LELLSLIFSFG | 2.13 ± 0.18
77 | IPVYVAVIVG | inactive
78 | LSIRWLTSCYLYGLLGSSGK | 0.256 ± 0.29
79 | NEFIEVALSLYRVNCQRNFI | -1.5 ± 0.53
80 | GHTPCPHNVVRTHVLSWHGL | 7.021 ± 0.042
81 | IVDSFTYTDVSTGSYLFG | -1.42 ± 0.75
82 | HCFALGR | 0.088 ± 0.21
83 | RMVSYY | -0.474 ± 0.56
84 | TCELYESHVGTFLHVSSNGT | 1.23 ± 0.12
85 | SGFNNISMKQLWWT | inactive
